Values of other authors as cited in article PMC3760879.

Molecular target: Asp97 (UniProt position 97, VFRYIDWLLTV)
Conditions: dark/ground state implied (protonation of the acceptor group at neutral pH); not explicitly stated

Substance: Proteorhodopsin (PR) (uncultured marine gamma-proteobacterium (the article says only 'γ-proteobacteria'))
- pKa: around 7.2
